Data as given in patent US20030143740, “Processes for transposase mediated integration into mammalian cells” (published 2003).

Biological target: hyperactive Tn5 transposase (EK54, MA56, LP372) expressed from pMIR86 (UniProt Q46731 Q46731:1-476, E54K,M56A,L372P)
Assay: cell_activity; NIH3T3 co-transfection
Conditions: tags: pCI mammalian expression vector; chain copies: 2; PshA I blunt-ended linear transposon, ME inverted repeats at both ends
From the text: C. Tn5 transposase expressed in eukaryotic cells increases the number of integration events. Plasmid pMIR86 encoding transposase was co-transfected into NIH3T3 cells with transposon plasmid pMIR136 (pSEAP-Tn). The pMIR136 was either linearized with PshA I to form the transposon (SEAP-Tn), or cut with Eco R V/Sse8387 I to remove Tn5 elements from the transposon (SEAP), or left supercoiled (pSEAP-Tn). Control reactions included the same transposon DNA samples but with pCI-Luc (Promega) instead of pMIR86. […] No increase in colonies was observed when linear transposon DNA lacking flanking recognition elements was used.

B1: SEAP-Tn linear transposon with mosaic ends (dsDNA)
DNA 1: CTGTCTCTTATACACATCT
DNA 2: AGATGTGTATAAGAGACAG
Q: With B1 as the binder, how does the activity read?
A: 1.6 fold colonies vs control plasmid
